These results are taken from patent US20140227270A1.

Some results are limits rather than exact numbers.

This test deals with Human CXCR7 (human) (UniProt P25106). In words: competition FACS, 4 nM biotinylated SDF-1 on HEK-hCXCR7 cells.
Human CXCR7 (human), sequence (P25106 whole entry): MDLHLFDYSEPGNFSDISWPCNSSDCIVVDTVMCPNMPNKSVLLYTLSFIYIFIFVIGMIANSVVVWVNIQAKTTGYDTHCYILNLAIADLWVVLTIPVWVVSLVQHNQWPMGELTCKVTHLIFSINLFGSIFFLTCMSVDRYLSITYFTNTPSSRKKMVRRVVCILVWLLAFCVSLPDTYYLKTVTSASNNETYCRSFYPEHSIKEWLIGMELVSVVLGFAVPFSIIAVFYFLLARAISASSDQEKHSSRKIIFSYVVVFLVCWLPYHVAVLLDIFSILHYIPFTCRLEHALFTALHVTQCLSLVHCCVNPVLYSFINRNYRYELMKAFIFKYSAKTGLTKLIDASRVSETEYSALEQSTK

For Mab 8F11 (Biolegend) (antibody), the % competition relative to unlabelled SDF-1 was over 95%.
